# Measurements reported in patent US7285703B2, “Plant like starches and the method of making them in hosts” (BASF Plant Science GmbH, priority 1998, dated 2007).
# What was measured:
# [1] = substrate: Nc1ncnc2c1ncn2[C@@H]1O[C@H](COP(=O)(O)OP(=O)(O)O[C@H]2O[C@H](CO)[C@@H](O)[C@H](O)[C@H]2O)[C@@H](O)[C@H]1O; experiment: ADPGlc kinetics of starch synthase SSI-3; format: biochemical, maize; conditions: other: −citrate, 5 mg/ml amylopectin as primer, 37° C.
# Excerpt: (§1) FIG. 58. SSI-1, SSI-2, and SSI-3 construct design. Three forms of SSI were constructed in the pET expression (see Methods). pExs10a encodes SSI-1, the full length maize SSI (583 amino acids) which has the N-terminal sequence CVAELSREGP (SEQ ID NO:64). pExs8 encodes a truncated SSI, SSI-2, with amino acids # 8-52 deleted from the N-terminus of SSI-1 and which has the N-terminal sequence CVAELSR/DLG (SEQ ID NO:65). pExs1d encodes the most truncated form of SSI, SSI-3, with the first 93 amino acids deleted from SSI-1 and which has the N-terminal sequence SIVFVTGE (SEQ ID NO:66). A depiction of the waxygene, encoding GBSS, which has the N-terminal sequence ASAGMNW (SEQ ID NO:67), is also included for comparison. The amino acid motif KS/TGGL (SEQ ID NO:9), the putative binding site for ADGPGlc, in indicated by the triangles. The KS/TGGL (SEQ ID NO:9) motif is located 18 amino acids from the N-terminus in GBSS, while the motif is 106 amino acids from the N-terminus in maize SSI. Drawing not to scale.
# (§2) 5 mL of supernatant were used to assay STS and SBE activities as previously described (Preiss) with minor modification. […] The unincorporated [^14C]-ADPGlc was separated with Dowex anion exchange column (200-400 mesh, Sigma Chemical Co.). […] SBE activity was determined by phosphorylase stimulation assay. One unit of activity is defined as 1 mmol Glc incorporated into the a-glucan per min at. […]
# [2] = substrate: Nc1ncnc2c1ncn2[C@@H]1O[C@H](COP(=O)(O)OP(=O)(O)O[C@H]2O[C@H](CO)[C@@H](O)[C@H](O)[C@H]2O)[C@@H](O)[C@H]1O; experiment: ADPGlc kinetics of starch synthase SSIIb-1; format: biochemical, maize; conditions: 37° C.
# [3] = substrate: Nc1ncnc2c1ncn2[C@@H]1O[C@H](COP(=O)(O)OP(=O)(O)O[C@H]2O[C@H](CO)[C@@H](O)[C@H](O)[C@H]2O)[C@@H](O)[C@H]1O; experiment: ADPGlc kinetics of starch synthase SSI-1; format: biochemical, maize; conditions: other: −citrate, 5 mg/ml amylopectin as primer, 37° C.
# Excerpt: as §1, §2
# [4] = substrate: Nc1ncnc2c1ncn2[C@@H]1O[C@H](COP(=O)(O)OP(=O)(O)O[C@H]2O[C@H](CO)[C@@H](O)[C@H](O)[C@H]2O)[C@@H](O)[C@H]1O; experiment: ADPGlc kinetics of starch synthase SSIIb-2; format: biochemical, maize; conditions: 37° C.
# Excerpt: FIG. 60. SSIIb-1 and SSIIb-2 construct diagram. Two forms of SSIIb were constructed in the pET expression system (see Methods). pExs9 encodes SSIIb-1 which has the N-terminal sequence GSVGAALRS (SEQ ID NO:70), the putative full-length maize SSIIb which has the N-terminal sequence AAAPAGEE (SEQ ID NO:2). […] A depiction of the waxy gene, encoding GBSS which has the N-terminal sequence ASAGMNVV (SEQ ID NO:67), is also included for comparison. The amino acid motif KTGGL (SEQ ID NO:10), the putative binding site for ADPGlc, is indicated by the triangles. The KTGGL (SEQ ID NO:10) motif is located 18 amino acids from the N-terminus in GBSS, while the motif is 158 amino acids from the N-terminus in maize SSIIb.
# 5 mL of supernatant were used to assay STS and SBE activities as previously described (Preiss) with minor modification. […] […] The unincorporated [^14C]-ADPGlc was separated with Dowex anion exchange column (200-400 mesh, Sigma Chemical Co.). […] SBE activity was determined by phosphorylase stimulation assay. One unit of activity is defined as 1 mmol Glc incorporated into the a-glucan per min at. 30° C.
# For the recombinant SS purification, the cell pellet was resuspended in sonication buffer (50 mM Tris-acetate, pH 7.5, 10 mM EDTA, and 5 mMDTT; 7 ml buffer per gram of cell mass), and cells were lysed using a Fisher 550 Sonic Dismembrator with 5×1 min. bursts with 30 sec. intervals. The homogenate was centrifuged at 9600 g for 30 minutes. SSI in the supernatant was then precipitated by slowly adding neutralized saturated ammonium sulfate to 40% saturation. After stirring on ice for an additional 50 minutes, proteins were collected by centrifugation at 12500 g for 45 minutes. The protein pellet was then redissolved in buffer A (50 mM Tris, pH 5.5, 1 mM EDTA, and 5 mM DTT) containing 0.1 M KCl and dialyzed against the same buffer, with one change of buffer. After dialysis, the sample was centrifuged at 13000 g for 20 minutes to remove insoluble materials. The resulting supernatant was loaded onto […] pre-equilibrated with dialysis buffer, and the flow through was collected. The column was washed with 10 column volumes of buffer a containing 0.1 M KCl, and then with buffer A containing 0.5 M KCl and 0.5 M maltose, collecting fractions during both washes. The active fractions were pooled and dialyzed overnight against buffer A, with one change of buffer. The next day, the amylase column sample was filtered and applied to a mono Q 5/5 FPLC column (Pharmacia). After washing with buffer A, a 20 ml 0-0,4 M KCl gradient was employed. […]
# [5] = substrate: Nc1ncnc2c1ncn2[C@@H]1O[C@H](COP(=O)(O)OP(=O)(O)O[C@H]2O[C@H](CO)[C@@H](O)[C@H](O)[C@H]2O)[C@@H](O)[C@H]1O; experiment: purified protein, by the assay type; conditions: other: −citrate, 5 mg/ml amylopectin as primer, 37° C.
# Method: (SEQ ID NO:64). pExs8 encodes a truncated SSI, SSI-2, with amino acids # 8-52 deleted from the N-terminus of SSI-1 and which has the N-terminal sequence CVAELSR/DLG (SEQ ID NO:65). pExs1d encodes the most truncated form of SSI, SSI-3, with the first 93 amino acids deleted from SSI-1 and which has the N-terminal sequence [sequence]
# 5 mL of supernatant were used to assay STS and SBE activities as previously described (Preiss) with minor modification. The reaction mixture for STS contained 100 mM Bicine buffer, 10 mg/mL glycogen, 0.5 mg/mL BSA, 0.5 M sodium citrate, 25 mM potassium acetate, 10 mM GSH, 3 mM [^14C]-ADPGlc (500 dpm/nmol) and enzyme in a final volume of 0.1 mL. The reaction was carried out at 25° C. for 15 min and terminated by boiling for 2 min. The unincorporated [^14C]-ADPGlc was separated with Dowex anion exchange column (200-400 mesh, Sigma Chemical Co.). One unit of activity is defined as 1 nmol Glc incorporated into the a-glucan per min at 25° C.
# For the recombinant SS purification, the cell pellet was resuspended in sonication buffer (50 mM Tris-acetate, pH 7.5, 10 mM EDTA, and 5 mMDTT; 7 ml buffer per gram of cell mass), and cells were lysed using a Fisher 550 Sonic Dismembrator with 5×1 min. bursts with 30 sec. intervals. The homogenate was centrifuged at 9600 g for 30 minutes. SSI in the supernatant was then precipitated by slowly adding neutralized saturated ammonium sulfate to 40% saturation. After stirring on ice for an additional 50 minutes, proteins were collected by centrifugation at 12500 g for 45 minutes. The protein pellet was then redissolved in buffer A (50 mM Tris, pH 5.5, 1 mM EDTA, and 5 mM DTT) containing 0.1 M KCl and dialyzed against the same buffer, with one change of buffer. After dialysis, the sample was centrifuged at 13000 g for 20 minutes to remove insoluble materials. The resulting supernatant was loaded onto amylase affinity column pre-equilibrated with dialysis buffer, and the flow through was collected. […]
protein,measurement,setting,value
"maize starch synthase SSI-3 (STSI-3), N-terminally truncated SSI, first 93 amino acids of SSI-1 deleted, N-terminus SIVFVTGE (SEQ ID NO:66) (Zea mays) (protein) SIVFVTGEASPYAKSGGLGDVCGSLPVALAARGHRVMVVMPRYLNGTSDKNYANAFYTEKHIRIPCFGGEHEVTFFHEYRDSVDWVFVDHPSYHRPGNLYGDKFGAFGDNQFRYTLLCYAACEAPLILELGGYIYGQNCMFVVNDWHASLVPVLLAAKYRPYGVYKDSRSILVIHNLAHQGVEPASTYPDLGLPPEWYGALEWVFPEWARRHALDKGEAVNFLKGAVVTADRIVTVSKGYSWEVTTAEGGQGLNELLSSRKSVLNGIVNGIDINDWNPATDKCIPCHYSVDDLSGKAKCKGALQKELGLPIRPDVPLIGFIGRLDYQKGIDLIQLIIPDLMREDVQFVMLGSGDPELEDWMRSTESIFKDKFRGWVGFSVPVSHRITAGCDILLMPSRFEPCGLNQLYAMQYGTVPVVHATGGLRDTVENFNPFGENGEQGTGWAFAPLTTENMFVDIANCNIYIQGTQVLLGRANEARHVKRLHVGPCR",Km,[1],620 ± 40 µM
"maize starch synthase SSIIb-1, putative full-length SSIIb (637 amino acids), N-terminus … (SEQ ID NO:70) (Zea mays) (protein, N-terminus printed as both … and AAAPAGEE) AAAPAGGESEEAAKSSSSSQAGAVQGSTAKAVDSASPPNPLTSAPKQSQSAAMQNGTSGGSSASTAAPVSGPKADHPSAPVTKREIDASAVKPEPAGDDARPVESIGIAEPVDAKADAAPATDAAASAPYDREDNEPGPLAGPNVMNVVVVASECAPFCKTGGLGDVVGALPKALARRGHRVMVVIPRYGEYAEARDLGVRRRYKVAGQDSEVTYFHSYIDGVDFVFVEAPPFRHRHNNIYGGERLDILKRMILFCKAAVEVPWYAPCGGTVYGDGNLVFIANDWHTALLPVYLKAYYRDNGLMQYARSVLVIHNIAHQGRGPVDDFVNFDLPEHYIDHFKLYDNIGGDHSNVFAAGLKTADRVVTVSNGYMWELKTSEGGWGLHDIINQNDWKLQGIVNGIDMSEWNPAVDVHLHSDDYTNYTFETLDTGKRQCKAALQRQLGLQVRDDVPLIGFIGRLDHQKGVDIIADAIHWIAGQDVQLVMLGTGRADLEDMLRRFESEHSDKVRAWVGFSVPLAHRITAGADILLMPSRFEPCGLNQLYAMAYGTVPVVHAVGGLRDTVAPFDPFNDTGLGWTFDRAEANRMIDALSHCLTTYRNYKESWRACRARGMAEDLSWDHAAVLYEDVLVKAKYQW",Km,[2]; other: with amylopectin,400 ± 20 µM
same,Vmax,[2]; other: with amylopectin,72.8 ± 2.8 μmol min^−1 mg^−1 protein
same,Km,[2]; other: with glycogen,710 ± 10 µM
same,Vmax,[2]; other: with glycogen,76.8 ± 3.2 μmol min^−1 mg^−1 protein
"maize starch synthase SSI-1 (STSI-1), full length SSI (583 amino acids), N-terminus CVAELSREGP (SEQ ID NO:64) (Zea mays) (protein) CVAELSREGPAPRPLPPALLAPPLVPGFLAPPAEPTGEPASTPPPVPDAGLGDLGLEPEGIAEGSIDNTVVVASEQDSEIVVGKEQARAKVTQSIVFVTGEASPYAKSGGLGDVCGSLPVALAARGHRVMVVMPRYLNGTSDKNYANAFYTEKHIRIPCFGGEHEVTFFHEYRDSVDWVFVDHPSYHRPGNLYGDKFGAFGDNQFRYTLLCYAACEAPLILELGGYIYGQNCMFVVNDWHASLVPVLLAAKYRPYGVYKDSRSILVIHNLAHQGVEPASTYPDLGLPPEWYGALEWVFPEWARRHALDKGEAVNFLKGAVVTADRIVTVSKGYSWEVTTAEGGQGLNELLSSRKSVLNGIVNGIDINDWNPATDKCIPCHYSVDDLSGKAKCKGALQKELGLPIRPDVPLIGFIGRLDYQKGIDLIQLIIPDLMREDVQFVMLGSGDPELEDWMRSTESIFKDKFRGWVGFSVPVSHRITAGCDILLMPSRFEPCGLNQLYAMQYGTVPVVHATGGLRDTVENFNPFGENGEQGTGWAFAPLTTENMFVDIANCNIYIQGTQVLLGRANEARHVKRLHVGPCR",Km,[3],240 ± 20 µM
"maize starch synthase SSIIb-2, N-terminally truncated SSIIb, first 144 amino acids deleted (492 amino acids), N-terminus MNVVVVASE (SEQ ID NO:71) (Zea mays) (protein) MNVVVVASECAPFCKTGGLGDVVGALPKALARRGHRVMVVIPRYGEYAEARDLGVRRRYKVAGQDSEVTYFHSYIDGVDFVFVEAPPFRHRHNNIYGGERLDILKRMILFCKAAVEVPWYAPCGGTVYGDGNLVFIANDWHTALLPVYLKAYYRDNGLMQYARSVLVIHNIAHQGRGPVDDFVNFDLPEHYIDHFKLYDNIGGDHSNVFAAGLKTADRVVTVSNGYMWELKTSEGGWGLHDIINQNDWKLQGIVNGIDMSEWNPAVDVHLHSDDYTNYTFETLDTGKRQCKAALQRQLGLQVRDDVPLIGFIGRLDHQKGVDIIADAIHWIAGQDVQLVMLGTGRADLEDMLRRFESEHSDKVRAWVGFSVPLAHRITAGADILLMPSRFEPCGLNQLYAMAYGTVPVVHAVGGLRDTVAPFDPFNDTGLGWTFDRAEANRMIDALSHCLTTYRNYKESWRACRARGMAEDLSWDHAAVLYEDVLVKAKYQW",Km,[4]; other: with amylopectin,320 ± 30 µM
same,Vmax,[4]; other: with amylopectin,90.9 ± 4.2 μmol min^−1 mg^−1 protein
same,Km,[4]; other: with glycogen,320 ± 40 µM
same,Vmax,[4]; other: with glycogen,130 ± 6 μmol min^−1 mg^−1 protein
"maize starch synthase SSI-2 (STSI-2), N-terminally truncated SSI, amino acids 8-52 of SSI-1 deleted, N-terminus CVAELSR/DLG (SEQ ID NO:65) (Zea mays; DEL47-91) (protein) CVAELSRDLGLEPEGIAEGSIDNTVVVASEQDSEIVVGKEQARAKVTQSIVFVTGEASPYAKSGGLGDVCGSLPVALAARGHRVMVVMPRYLNGTSDKNYANAFYTEKHIRIPCFGGEHEVTFFHEYRDSVDWVFVDHPSYHRPGNLYGDKFGAFGDNQFRYTLLCYAACEAPLILELGGYIYGQNCMFVVNDWHASLVPVLLAAKYRPYGVYKDSRSILVIHNLAHQGVEPASTYPDLGLPPEWYGALEWVFPEWARRHALDKGEAVNFLKGAVVTADRIVTVSKGYSWEVTTAEGGQGLNELLSSRKSVLNGIVNGIDINDWNPATDKCIPCHYSVDDLSGKAKCKGALQKELGLPIRPDVPLIGFIGRLDYQKGIDLIQLIIPDLMREDVQFVMLGSGDPELEDWMRSTESIFKDKFRGWVGFSVPVSHRITAGCDILLMPSRFEPCGLNQLYAMQYGTVPVVHATGGLRDTVENFNPFGENGEQGTGWAFAPLTTENMFVDIANCNIYIQGTQVLLGRANEARHVKRLHVGPCR",Km,[5],250 ± 40 µM
